From paper PMC5113752 (Protein expression and purification, 2015)

Biological target: the molecule itself
Experiment: cross-linking

B1: p7 viroporin from hepatitis C virus strain H77 genotype 1a, in proteoliposomes (natural protein, hepatitis C virus genotype 1a strain H77, UniProt P27958 747-809, looked up)
chain: ALENLVILNAASLAGTHGLVSFLVFFCFAWYLKGRWVPGAVYALYGMWPLLLLLLALPQRAYA
  stoichiometry N: 6
